The values that follow come from publication PMC9786881 (Viruses, 2022).

Values joined by “and” are separate entries in the source; they are usually repeats but may differ in a detail not shown here. Identical values can stand only once.

B1: full-length RABV phosphoprotein (PFL) (natural protein)
chain: MSKIFVNPSAIRAGLADLEMAEETVDLINRNIEDNQAHLQGEPIEVDNLPEDMKRLHLDDEKSSNLGEMVRVGEGKYREDFQMDEGEDPNLLFQSYLDNVGVQIVRQMRSGERFLKIWSQTVEEIVSYVTVNFPNPPRRSSEDKSTQTTGRELKKETTSAFSQRESQPSKARMVAQVAPGPPALEWSATNEEDDLSVEAEIAHQIAESFSKKYKFPSRSSGIFLYNFEQLKMNLDDIVKEAKNVPGVTRLAHDGSKIPLRCVLGWVALANSKKFQLLVEADKLSKIMQDDLNRYTSC
B2: RABV nucleoprotein lacking its N-terminal arm (N[change], residues 24-450) (domain or fragment)
chain: DQYEYKYPAIKDLKKPCITLGKAPDLNKAYKSVLSGMNAAKLDPDDVCSYLAAAMQFFEGTCPEDWTSYGILIARKGDRITPNSLVEIKRTDVDGNWALTGGMELTRDPTVSEHASLVGLLLSLYRLSKISGQNTGNYKTNIADRIEQIFETAPFVKIVEHHTLMTTHKMCANWSTIPNFRFLAGTYDMFFSRIEHLYSAIRVGTVVTAYEDCSGLVSFTGFIKQINLTAREAILYFFHKNFEEEIRRMFEPGQETAVPHSYFIHFRSLGLSGKSPYSSNAVGHVFNLIHFVGCYMGQVRSLNATVIAACAPHEMSVLGGYLGEEFFGKGTFERRFFRDEKELQEYEAAELTKTDVALADDGTVNSDDEDYFSGETRSPEAVYTRIMMNGGRLKRSHIRRYVSVSSNHQARPNSFAEFLNKTYSNDS
B3: RABV phosphoprotein residues 1-68 with C-terminal His6 (P68−His6) (peptide)
chain: MSKIFVNPSAIRAGLADLEMAEETVDLINRNIEDNQAHLQGEPIEVDNLPEDMKRLHLDDEKSSNLGE

The data set “SEC-SAXS” concerns the molecule itself. As to the kind of experiment: SEC-SAXS. (In general: In gel filtration, larger molecules generally elute earlier.)
The target in data set [1] is B1. The experiment in a line: SEC-SAXS. As to conditions: both partners purified.
In data set [2] the target is B2. The experiment in a line: SEC-MALLS. The note with it: both partners purified.
Data set [3] concerns the target B2. The experiment in a line: fluorescence polarisation. The note with it: both partners purified. On the technique in general: In fluorescence polarisation assays a small probe gives low polarisation when free and higher when bound to something large.
Data set [4] addresses B2. The experiment in a line: fluorescence polarisation. As to conditions: both partners purified. This is another data set of the same source.

As for B1, in “SEC-SAXS”, the “stoichiometry N” value came to 2.
With B2, in data set [1], the “stoichiometry N” value was 2 N molecules per P dimer and 1 N molecules per P dimer.
As for B3, the Kd was less than 1000 nM in data set [2] and 8.2 ± 0.6 nM in data set [3]. Also, the IC50 in data set [4] was approximately 1000 nM.

Usually stoichiometry N stands for a count of units in the complex or per binding partner. One may read the Kd as the free concentration of one partner at which half of the binding sites on the other are occupied at equilibrium, for simple one-to-one binding. High values mean weaker binding, low ones tighter binding. In general, IC50 refers to the point on the concentration scale where inhibition reaches its midpoint. A low value points to inhibition by little substance.
